Measurements: US20200368341A1

Molecular target: P. falciparum circumsporozoite protein (CSP) (Plasmodium falciparum) (UniProt P19597)
Test: cell-based or functional assay

UniProt P19597, sequence (P19597 19-374): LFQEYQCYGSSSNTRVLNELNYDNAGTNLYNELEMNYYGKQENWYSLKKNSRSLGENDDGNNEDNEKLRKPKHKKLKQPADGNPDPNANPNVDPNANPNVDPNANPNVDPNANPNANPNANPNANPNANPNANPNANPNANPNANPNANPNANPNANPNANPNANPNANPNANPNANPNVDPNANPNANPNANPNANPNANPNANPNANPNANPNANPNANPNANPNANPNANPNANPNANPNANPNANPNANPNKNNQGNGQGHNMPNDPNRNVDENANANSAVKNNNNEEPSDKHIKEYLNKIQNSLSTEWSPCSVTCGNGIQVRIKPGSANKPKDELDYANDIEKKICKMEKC

monoclonal antibody 2A10
in vitro liver invasion assay: parasite burden in liver cells against the pre-immune control serum: > 2 log
